Results on 14 molecules are retold here after US20080305041A1, “Pf4 Pharmacophores and Their Uses” (BIOQUANTA CORP., priority 2004, published 2008).

Numbering of substitutions follows the chain as printed. Names and notes keep the numbering of the source.

Experiment [1] concerns PF4 receptor. The experiment is described as follows: PF4 receptor binding / competition of PF4-derived peptides.
Experiment [2] relates to PF4 receptor. The experiment is described as follows: PF4 receptor activation by PF4-derived peptides.
The subject of experiment [3] is HUVEC. The experiment is described as follows: Angiogenic activity of mutant PF4 polypeptides in HUVEC cells. The experiment is classed as cell-based, Human. The following applies: for antiangiogenic properties/activity of PF4 (effect of the mutation): Table 4 column Function. The method, then:
(§1) Inhibition of DNA synthesis was measured by [^3H]-thymidine incorporation assay. Cells were plated at 15,000 cells per well in a 24 well-plate in 0.5 ml medium containing 2.5% FCS and allowed to attach for 4 hours at 37° C. Proliferation was then induced by addition of 10 ng/ml of FGF-2, VEGF165 or VEGF121. Increasing concentrations of purified recombinant PF4 proteins were added to some wells and HUVEC were further incubated for 48 hours. [^3H]-thymidine (1 μCi/well) was added during the last 20 hours of incubation. Cells were washed twice with PBS and treated with ice-cold 10% (w/v) trichloroacetic acid for 30 minutes. The resulting precipitates were solubilized with 1 M NaOH and incorporated radioactivity was measured in a Beckman LS-6500 multi-purpose scintillation counter.
HUVEC migration was evaluated in a modified Boyden chamber assay. Transwell cell culture chamber inserts with porous polycarbonate filters ([…]) were coated with 0.2% gelatin. HUVEC suspended in medium supplemented with 2.5% FCS were added to the inserts at 4×10^4 cells per well. The inserts were placed over chambers containing a chemotactic stimulus (10 ng/ml VEGF165), and cells were allowed to migrate for 4 hours at 37° C. in a CO2 incubator. For inhibition experiments, recombinant PF4 proteins were added to both the lower and upper chambers. After incubation, filters were rinsed with PBS, fixed with 1% paraformaldehyde and stained with hematoxyline of Harris (EMD Chemicals Inc. Gibbstown, N.J.).
(§2) The upper surfaces of the filters was scraped with a cotton swab to remove the nonmigrant cells. The […] in a optical microscope at high powered (×200) magnification, and the number of cells within the microscope visualization field was recorded. Each experimental point was performed in triplicate, and 20 visual fields were analyzed per filter.
Next, the PF4 surface was mapped using site-directed mutagenesis. In particular, a series of mutant PF4 polypeptides was generated, and their angiogenic activity in HUVEC cells was investigated using assays such as those described in Section 6.1, above. Table 3 below lists amino acid sequences of the PF4 polypeptides generated, along with each polypeptide designation and sequence identification number (SEQ ID NO.). The first sequence, which is designated WTPF4, corresponds to the wild-type, mature PF4 amino acid sequence that is also depicted in FIG. 1C (SEQ ID NO:1). The other sequences depicted in Table 3 comprise one or more amino acid substitutions, indicated by bold-faced, underlined type in the amino acid sequence.

The test system of experiment [4] is HUVEC. The experiment is described as follows: HUVEC migration assay (modified Boyden chamber). The experiment is classed as cell-based, Human. The method, then:
(§3) Human umbilical vein endothelial cells (HUVEC) were isolated by collagenase (Roche Diagnostics) digestion as described previously (Jaffe et al., J Clin Invest. 1973; 85(11):2745-56).
(§4) Cells were grown in M199 medium containing 15% fetal calf serum (FCS), 5% human serum, 2 mM glutamine, 50 U/ml penicillin, 50 μg/ml streptomycin, 2.5 μg/ml amphotericin B, and 15 mM HEPES. Cultures were maintained at 37° C. amd 5% CO2 in humidified atmosphere. Every 3-4 days, the cultures were harvested by trypsin treatment, diluted, replated and grown to confluence. HUVEC grown until confluence from the second or third passage are preferably used for experiments described here.
HUVEC migration was evaluated in a modified Boyden chamber assay. Transwell cell culture chamber inserts with porous polycarbonate filters ([…]) were coated with 0.2% gelatin. HUVEC suspended in medium supplemented with 2.5% FCS were added to the inserts at 4×10^4 cells per well. […]
as §2

The test system of experiment [5] is HUVEC. Nature of the experiment: Endothelial cell proliferation assay ([3H]-thymidine incorporation). The experiment is classed as cell-based, Human. The following applies: stimulus not given. The method, then: as §3, §4
as §1, with “Cells were washed twice with PBS and treated with ice-cold 10% (w/v) trichloroacetic acid for 30 minutes.” left out

Consider “P34-56: peptide PHSPTAQLIATLKNGRKISLDLQ (SEQ ID NO:157), derived from residues 34-56 of mature PF4 [Mutant P34-56]”, for which the “binding to PF4 receptor” value in the experiment on PF4 receptor [1] is recorded as “bind to”. Also, the “activation of PF4 receptor” value in the experiment on PF4 receptor [2] was “activate”.

On to “P35-53: peptide PSPTAQLIATLKNGRKISL (SEQ ID NO:160), P34-53 with His2 removed [Mutant P35-53]”, for which the “binding to PF4 receptor” value with PF4 receptor [1] is “does not bind to”. For the same molecule, the “activation of PF4 receptor” value in the experiment with PF4 receptor [2] is listed as “does not bind to or activate”.

On to “P37-56: peptide PTAQLIATLKNGRKISLDLQ (SEQ ID NO:158), P34-56 without capping box [Mutant P37-56]”, for which the “activation of PF4 receptor” value in the experiment with PF4 receptor [2] is “does not activate”.

As to “P34-53: peptide PHSPTAQLIATLKNGRKISL (SEQ ID NO:159), derived from residues 34-53 of mature PF4 [Mutant P34-53]”, the “competition against P34-56 for target binding” value with PF4 receptor [1] (competitor P34-56) is recorded as “effectively competes”. Moreover, the “competition with PF4 for binding to the PF4 receptor” value with PF4 receptor [1] (competitor PF4) was “effectively competes”. For the same molecule, the “activation of PF4 receptor” value with PF4 receptor [2] is on record as “does not activate”.

B1: PF4-M10H: mutant PF4 polypeptide SEQ ID NO:19; single mutant T47A, without HBD (protein, listed as Homo sapiens)
chain: EAEEDGDLQCLCVKTASQVRPRHITSLEVIKAGPHCPTAQLIATLKNGRKICLDLQAPLYQEIIQELLES
In the case of B1, the “antiangiogenic properties/activity of PF4 (effect of the mutation)” value (“antiangiogenic properties/activity” below) in the experiment with HUVEC [3] is “Mutation does not suppress”.

B2: PF4-M1: mutant PF4 polypeptide SEQ ID NO:2; heparan sulfate binding domain (HBD) absent (protein, listed as Homo sapiens)
chain: B1 chain with A16T
For B2, in the experiment on HUVEC [4], the “inhibition of cell migration (HUVEC)” value is recorded as “PF4-M1 also inhibits cell”. Moreover, the “antiangiogenic properties/activity” value with HUVEC [3] is given as “PF4-M1 is antiangiogenic”.

B3: PF4-M3H: mutant PF4 polypeptide SEQ ID NO:6; PF4-M3 mutant without HBD (protein, listed as Homo sapiens)
chain: B1 chain with Q9R, A16T
As for B3, in the experiment with HUVEC [5], the “inhibition of the proliferation of HUVEC cells” value is “This mutant cannot inhibit”. For the same molecule, the “inhibition of cell migration (HUVEC)” value with HUVEC [4] was “This mutant cannot inhibit”. The “antiangiogenic properties/activity” value in the experiment with HUVEC [3] is on record as “cancels the antiangiogenic”.

B4: PF4-M6: mutant PF4 polypeptide SEQ ID NO:11; triple mutant Q49A, V50S, H54A carrying HBD (protein, listed as Homo sapiens)
chain: B1 chain with A16T, Q18A, V19S, H23A, Q61K, E62K, Q65K, E66K
For the molecule B4, in the experiment with HUVEC [3], the “antiangiogenic properties/activity” value is “Mutation decreases the”.

B5: PF4-M13H: mutant PF4 polypeptide SEQ ID NO:25; single mutant V50S, without HBD (protein, listed as Homo sapiens)
chain: B1 chain with A16T, V19S
Turning to B5, the “antiangiogenic properties/activity” value in the experiment with HUVEC [3] is reported as “Mutation does not suppress”.

B6: PF4-M5H: mutant PF4 polypeptide SEQ ID NO:10; triple mutant L42S, V44Q, T47A, without HBD (protein, listed as Homo sapiens)
chain: B1 chain with L11S, V13Q
Regarding B6, the “antiangiogenic properties/activity” value in the experiment with HUVEC [3] was “Decreases the antiangiogenic”.

B7: PF4-M5: mutant PF4 polypeptide SEQ ID NO:9; triple mutant L42S, V44Q, T47A carrying HBD (protein, listed as Homo sapiens)
chain: B1 chain with L11S, V13Q, Q61K, E62K, Q65K, E66K
With B7, the “antiangiogenic properties/activity” value in the experiment with HUVEC [3] was “Mutation decreases the”.

B8: PF4-M2H: mutant PF4 polypeptide SEQ ID NO:4; tests importance of Cys residues (protein, listed as Homo sapiens)
chain: B1 chain with C10S, A16T, C36S
B8: the “antiangiogenic properties/activity” value in the experiment on HUVEC [3] is on record as “Complete loss of activity due”.

B9: PF4-M3: mutant PF4 polypeptide SEQ ID NO:5; DLQ motif replaced by IL8-like motif, carrying HBD (protein, listed as Homo sapiens)
chain: B1 chain with Q9R, A16T, Q61K, E62K, Q65K, E66K
For B9, in the experiment with HUVEC [3], the “effect on HUVEC compared with WTPF4” value is reported as “sulfate. It has the same effect”.

B10: PF4-M2: mutant PF4 polypeptide SEQ ID NO:3; tests importance of Cys residues (protein, listed as Homo sapiens)
chain: B1 chain with C10S, A16T, C36S, Q61K, E62K, Q65K, E66K
Take B10: the “antiangiogenic properties/activity” value in the experiment with HUVEC [3] is reported as “Complete loss of activity due”.
